Test results taken from patent EP4545090A1 (Universität Leipzig, dated 2025).

T1: IFNGR1, human, endogenous in podocytes (human, UniProt P15260 18-489)
T1 construct: whole, on cells
T1 sequence (looked up): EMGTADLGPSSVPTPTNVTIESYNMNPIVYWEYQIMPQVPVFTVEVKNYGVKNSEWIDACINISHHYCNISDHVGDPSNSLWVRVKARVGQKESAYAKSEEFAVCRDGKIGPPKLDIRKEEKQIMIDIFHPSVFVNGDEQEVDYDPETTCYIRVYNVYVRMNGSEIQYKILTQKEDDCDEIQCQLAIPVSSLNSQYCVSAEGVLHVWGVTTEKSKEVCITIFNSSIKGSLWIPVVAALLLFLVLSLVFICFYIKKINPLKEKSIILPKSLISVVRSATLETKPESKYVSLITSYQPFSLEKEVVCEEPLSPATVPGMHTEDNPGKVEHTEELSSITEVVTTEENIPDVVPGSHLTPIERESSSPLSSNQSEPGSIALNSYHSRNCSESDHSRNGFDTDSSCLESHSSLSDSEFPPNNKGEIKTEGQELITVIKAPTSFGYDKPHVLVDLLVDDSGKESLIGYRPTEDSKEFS

B1: tissue factor (TF), human, as expressed by cells (receptor)
chain: SGTTNTVAAYNLTWKSTNFKTILEWEPKPVNQVYTVQISTKSGDWKSKCFYTTDTECDLTDEIVKDVKQTYLARVFSYPAGNVESTGSAGEPLYENSPEFTPYLETNLGQPTIQSFEQVGTKVNVTVEDERTLVRRNNTFLSLRDVFGKDLIYTLYYWKSSSSGKKTAKTNTNEFLIDVDKGENYCFSVQAVIPSRTVNRKGTDSPVECMGQEKGEFREIFYIIGAVVFVVIILVIILAISLHKCRKAGVGQSWKENSPLNVS
notes: also called hTF; human TF

Legend:
[1] = target: IFNAR1 as used in the microscale thermophoresis binding assay (Homo sapiens (Human)) (UniProt P17181); test: microscale thermophoresis binding assay
[2] = target: T1, IFNGR1, human, endogenous in podocytes; test: TF co-immunoprecipitation from human podocyte lysates, immunoblot

| Molecule | Kd [1] | binding result [2] |
| --- | --- | --- |
| tissue factor (TF) as used in the microscale thermophoresis binding assay (from UniProt P13726 33-251) (receptor) | 1160 nM |  |
| B1 |  | no binding |
